B1: scFv; the commonest letter at each place (parent)
chain 1: EVKLDETGGGLVQPGRPMKLSCVASGFTFSDYWMNWVRQSPEKGLEWVAQIRNKPYNYETYYSDSVKGRFTISRDDSKSSVYLQMNNLRVEDMGIYYCTGSYYGMDYWGQGTSVTVS
chain 2: DVVMTQTPLSLPVSLGDQASISCRSSQSLVHSNGNTYLRWYLQKPGQSPKVLIYKVSNRFSGVPDRFSGSGSGTDFTLKISRVEAEDLGVYFCSQSTHVPWTFGGGTKLEIK

What was measured:
[1] = variants of: B1; assay: Kd (Tite-Seq); settings: with fluorescein; format: scFv 4-4-20, heavy + light
[2] = variants of: B1; assay: yeast surface expression (ratio to wild type); higher = more expressed; settings: format: scFv 4-4-20, heavy + light

Variant	Kd [1]	yeast surface expression [2]
chain 1 S30Q W33N	≥ 10 µM	0.979
chain 1 G100Q M105S	≥ 10 µM	0.521
chain 1 T28G Y32M	≥ 10 µM	1.24
chain 1 S101M D106G	≥ 10 µM	0.323
chain 1 S101C G109D	≥ 10 µM	0.328
chain 1 S101D Y103K	≥ 10 µM	0.764
chain 1 G100K M105D	≥ 10 µM	0.375
chain 1 N35K V37M	≥ 10 µM	0.48
chain 1 D106K	≥ 10 µM	0.415
chain 1 G100T Y102H D106M	≥ 10 µM	1.02
chain 1 G100T G109K	≥ 10 µM	0.433
chain 1 S101H W108Y	≥ 10 µM	0.408
chain 1 S101G M105E D106R	≥ 10 µM	0.604
chain 1 S30Q Y32V	≥ 10 µM	0.923
chain 1 M105N D106P	≥ 10 µM	0.2
chain 1 G104W G109R	≥ 10 µM	0.171
chain 1 M34H	≥ 10 µM	0.737
chain 1 M34A	0.00826 µM	0.783
chain 1 M34F	0.00226 µM	0.988
chain 1 M34V	0.00361 µM	0.876
chain 1 M34P	≥ 10 µM	0.508
chain 1 D106N Y107I G109S	0.136 µM	0.679
chain 1 S30F M34Y	0.00871 µM	0.762
chain 1 T28I Y32T	≥ 10 µM	0.869
chain 1 F29A W33N	≥ 10 µM	0.741
chain 1 G100S M105W	5.37 µM	0.758

Variant	Kd [1]	yeast surface expression [2]
chain 1 S30C M34V	0.00827 µM	0.65
chain 1 G100F Y107T	≥ 10 µM	0.842
chain 1 D31F N35S	≥ 10 µM	0.367
chain 1 G100S D106E	0.0534 µM	1.15
chain 1 G100K G104C	4.6 µM	0.182
chain 1 F29C D31M	≥ 10 µM	0.669
chain 1 G104V G109W	≥ 10 µM	1.57
chain 1 F29N S30D	≥ 10 µM	0.949
chain 1 D106A Y107F	1.91 µM	0.508
chain 1 F29W N35G	≥ 10 µM	0.71
chain 1 S101N Y103L	≥ 10 µM	0.964
chain 1 G100Q G109E	≥ 10 µM	0.304
chain 1 T28N V37A	0.0729 µM	0.941
chain 1 G104A M105T	≥ 10 µM	0.685
chain 1 D106N G109N	≥ 10 µM	0.301
chain 1 D106N G109K	≥ 10 µM	0.277
chain 1 G104E M105V	≥ 10 µM	0.886
chain 1 S30N M34I	0.00293 µM	0.954
chain 1 S30H Y32T	≥ 10 µM	0.891
chain 1 D31N W36I	0.0287 µM	0.679
chain 1 F29Q S30D Y32A	≥ 10 µM	0.934
chain 1 G100C W108L	0.000389 µM	0.653
chain 1 M34G W36M	≥ 10 µM	1.94
chain 1 N35R W36K	≥ 10 µM	2.76
chain 1 S101D Y102P	≥ 10 µM	0.719
chain 1 S101Y G109K	≥ 10 µM	0.212

Variant	Kd [1]	yeast surface expression [2]
chain 1 G104I Y107N	≥ 10 µM	0.247
chain 1 T28S F29Q	0.00638 µM	0.969
chain 1 F29I N35R	≥ 10 µM	0.852
chain 1 S101I G104K	≥ 10 µM	0.482
chain 1 S101I G104Q	≥ 10 µM	0.397
chain 1 S101I G104T	≥ 10 µM	0.4
chain 1 M34R V37Q	0.205 µM	0.276
chain 1 T28I S30M	0.00104 µM	0.769
chain 1 T28K M34V	0.00122 µM	0.867
chain 1 D31G N35Q	≥ 10 µM	0.746
chain 1 D106I W108R	≥ 10 µM	0.422
chain 1 D106I W108Q	≥ 10 µM	0.395
chain 1 F29G D31E	≥ 10 µM	0.955
chain 1 D106F Y107D	≥ 10 µM	0.296
chain 1 D106L W108R G109Y	≥ 10 µM	0.0998
chain 1 M34A W36M	≥ 10 µM	0.249
chain 1 D31S W36P	≥ 10 µM	3.88
chain 1 S30C W36Y	0.0434 µM	0.691
chain 1 M105C D106E	≥ 10 µM	0.902
chain 1 S101L G104I	≥ 10 µM	0.452
chain 1 D31A V37K	0.382 µM	0.623
chain 1 G104I M105S	≥ 10 µM	0.592
chain 1 T28A N35C	≥ 10 µM	0.665
chain 1 G100F D106K	≥ 10 µM	0.653

More lines, main results first:

Kd [1]	Variant	yeast surface expression [2]
≥ 10 µM	chain 1 Y102V Y103C	0.798
1.26 µM	chain 1 Y103D Y107N	1.12
≥ 10 µM	chain 1 Y103C G109A	0.397
≥ 10 µM	chain 1 Y102H Y107F G109K	0.242
0.031 µM	chain 1 W108N	0.468
≤ 0.000316 µM	chain 1 W108I	0.882
≥ 10 µM	chain 1 W108A G109H	0.356
≥ 10 µM	chain 1 W33R M34I	0.644
≥ 10 µM	chain 1 Y102E D106M	0.531
≥ 10 µM	chain 1 Y32A W33S V37G	0.472
≥ 10 µM	chain 1 Y102E G104E	0.934
≥ 10 µM	chain 1 Y102P G104S M105H	0.325
≥ 10 µM	chain 1 W36D	0.512
≥ 10 µM	chain 1 W33A V37N	0.49
≥ 10 µM	chain 1 Y107D W108Q	0.706
≥ 10 µM	chain 1 Y103D M105N	1.19
≥ 10 µM	chain 1 W33S W36D	0.562
≥ 10 µM	chain 1 W33S W36L	0.535
≥ 10 µM	chain 1 Y103D D106R	0.454
≥ 10 µM	chain 1 Y102I Y103E G109K	0.364

Kd [1]	Variant	yeast surface expression [2]
7.33 µM	chain 1 Y107A	1
≥ 10 µM	chain 1 W36M V37S	0.415
≥ 10 µM	chain 1 W36H V37E	0.267
≥ 10 µM	chain 1 Y107A G109M	0.209
≥ 10 µM	chain 1 Y32G M34P	0.545
0.00128 µM	chain 1 Y102S Y107W	0.747
0.00251 µM	chain 1 Y102S Y107R	0.667
≥ 10 µM	chain 1 W33M M34P	0.576
0.00142 µM	chain 1 Y32F V37C	0.914
≥ 10 µM	chain 1 Y32E N35S	0.87
0.205 µM	chain 1 W33R V37D	1.19
0.167 µM	chain 1 Y103L G109S	0.855
0.0265 µM	chain 1 Y32H	1.03
0.155 µM	chain 1 Y32S	1.06
0.064 µM	chain 1 Y32R	0.954
≥ 10 µM	chain 1 Y102E M105A	0.815
≥ 10 µM	chain 1 Y32G W36H	0.209
≥ 10 µM	chain 1 Y103I D106Q	0.516
≥ 10 µM	chain 1 W33G M34I	0.433
0.021 µM	chain 1 Y32N M34E	–
